{"source": "paper PMC9409100", "assay_in_all_cases": "pull-down", "key": {"[1]": {"target": "T1, His6-MBP-Csy4* (inactive Csy4) H29A;S50C (Pseudomonas aeruginosa) (UniProt Q02MM2)", "T1 sequence": "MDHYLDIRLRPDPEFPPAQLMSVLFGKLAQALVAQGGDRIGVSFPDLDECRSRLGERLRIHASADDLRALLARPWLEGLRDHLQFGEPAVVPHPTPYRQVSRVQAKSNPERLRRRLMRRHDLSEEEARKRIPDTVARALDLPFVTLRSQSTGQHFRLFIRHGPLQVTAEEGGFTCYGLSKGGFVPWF", "conditions": "no imidazole; RNA folded in 20 mM Tris-HCl pH 7.5, 100 mM (salt not given), 3 mM MgCl2; binding 90 min at 4 C on beads; RNA binding buffer 20 mM Tris-HCl pH 7.5, 100 mM …"}, "[2]": {"target": "T2, His6-Myc-Csy4* (inactive Csy4) H29A;S50C (Pseudomonas aeruginosa) (UniProt Q02MM2)", "T2 sequence": "T1 sequence", "conditions": "no imidazole; 'almost 50%'; RNA folded in 20 mM Tris-HCl pH 7.5, 100 mM (salt not given), 3 mM MgCl2; binding 90 min at 4 C on beads; RNA binding buffer 20 mM Tris-HCl pH 7.5, 100 mM …"}, "[3]": {"target": "T3, His6-TwinStrep-Csy4* (inactive Csy4) H29A;S50C (Pseudomonas aeruginosa) (UniProt Q02MM2)", "T3 sequence": "T1 sequence", "conditions": "no imidazole; RNA folded in 20 mM Tris-HCl pH 7.5, 100 mM (salt not given), 3 mM MgCl2; binding 90 min at 4 C on beads; RNA binding buffer 20 mM Tris-HCl pH 7.5, 100 mM …"}}, "data": [{"sequence": "GGGUUCACUGCCGUAUAGGCAGAUAUAGAAGGUAGUGGAUCUCGACAGGGUUGAUAUGAGAACACACGAGUAAUCAACGGCUGUAAUGACGCUACGUCAUUGUUACAGCUCUCGUUUUCAUGUGUUCUCAGGUCACCCCUGCUGAGCUCUUUCUCUACCGUAAUUAC [Csy4-hairpin-tagged pri-miR398b-SL]", "values": [{"measurement": "binding signal (% transcript depleted from supernatant)", "setting": "[1]", "result": 80}, {"measurement": "binding signal (% transcript depleted from supernatant)", "setting": "[2]", "result": 50}, {"measurement": "binding signal (% transcript depleted from supernatant)", "setting": "[3]", "result": "< 10"}]}]}
